{"source": "paper PMC6743065", "about": "“Structural and functional characterization of the mitochondrial complex IV assembly factor Coa6” (Life Science Alliance, 2019)", "proteins": {"B1": {"name": "pathogenic mutant protein ^W59CCoa6 (natural protein, human)", "chain": "GPLGSMAAPSMKERQVCCGARDEYWKCLDENLEDASQCKKLRSSFESSCPQQWIKYFDKRRDYLKFKEKFEAGQFEPSETTAKS", "notes": "five residues left at the N terminus after cleavage of the GST tag with PreScission Protease; Coa6, human; residues 47-125 of the full-length Coa6 isoform 1 (UniProtKB Q5JTJ3) with the patient mutation W59C; In the crystal, Cys59 of each chain is joined by an intermolecular disulfide to Cys59 of another chain; not shown: GST, N-terminal, cleaved"}, "B2": {"name": "human wild-type Coa6 (^WTCoa6) (natural protein)", "chain": "B1 chain with C18W", "notes": "five residues left at the N terminus after cleavage of the GST tag with PreScission Protease; Coa6, human; isoform 3, composed of residues 47-125 of the full-length Coa6 isoform 1 (UniProtKB Q5JTJ3); the N-terminal residue is numbered Met47; Fully oxidized: intramolecular disulfides Cys58-Cys90 and Cys68-Cys79; also called Coa6 isoform 3; not shown: GST, N-terminal, cleaved"}, "B3": {"name": "^Y97A/Y104ACoa6 (natural protein, human)", "chain": "B1 chain with C18W, Y56A, Y63A", "notes": "five residues left at the N terminus after cleavage of the GST tag with PreScission Protease; Coa6, human; residues 47-125 of the full-length Coa6 isoform 1 (UniProtKB Q5JTJ3), mutations introduced into the ^WTCoa6 ORF; not shown: GST, N-terminal, cleaved"}, "B4": {"name": "^Y97ACoa6 (natural protein, human)", "chain": "B1 chain with C18W, Y56A", "notes": "five residues left at the N terminus after cleavage of the GST tag with PreScission Protease; Coa6, human; residues 47-125 of the full-length Coa6 isoform 1 (UniProtKB Q5JTJ3), mutation introduced into the ^WTCoa6 ORF; not shown: GST, N-terminal, cleaved"}, "B5": {"name": "^R101ACoa6 (natural protein, human)", "chain": "B1 chain with C18W, R60A", "notes": "as for B4"}, "B6": {"name": "^Y104ACoa6 (natural protein, human)", "chain": "B1 chain with C18W, Y63A", "notes": "as for B4"}}, "note": "Where a chain is given by its changes, count along the chain named. Names may count otherwise.", "data": [{"target": "the molecule itself", "assay": "crystal structure; ^W59CCoa6 25 mg/ml in 20 mM Tris-MES pH 8.0, 150 mM NaCl; crystallized with 0.1 M Bis-Tris pH 5.7, 0.23 M MgCl2, 29% PEG 3350, 20°C; 2.2 Å; four molecules per asymmetric unit", "values": [{"protein": "B1", "binding result": "binds"}]}, {"target": "the molecule itself", "assay": "SEC; analytical SEC, Superdex 200 Increase 3.2/300, 100 μg protein, 20 mM Tris-MES pH 8.0, 150 mM NaCl, 0.05 ml/min; elution volumes compared with that of ^WTCoa6", "values": [{"protein": "B2", "stoichiometry N": 2}, {"protein": "B3", "stoichiometry N": 2}, {"protein": "B4", "stoichiometry N": 2}, {"protein": "B5", "stoichiometry N": 2}, {"protein": "B6", "stoichiometry N": 2}]}]}
